Data as given in publication PMC1142404 (Nucleic Acids Research, 2005).
One block for each binder: values may come before it.

What was measured:
[1] = biological target: T1, aCBF5 protein (archaeal CBF5 RNA:Ψ-synthase), Pyrococcus abyssi, cleaved from GST (Pyrococcus abyssi, UniProt Q9V1A5 1-334); test: pull-down
T1 sequence (looked up): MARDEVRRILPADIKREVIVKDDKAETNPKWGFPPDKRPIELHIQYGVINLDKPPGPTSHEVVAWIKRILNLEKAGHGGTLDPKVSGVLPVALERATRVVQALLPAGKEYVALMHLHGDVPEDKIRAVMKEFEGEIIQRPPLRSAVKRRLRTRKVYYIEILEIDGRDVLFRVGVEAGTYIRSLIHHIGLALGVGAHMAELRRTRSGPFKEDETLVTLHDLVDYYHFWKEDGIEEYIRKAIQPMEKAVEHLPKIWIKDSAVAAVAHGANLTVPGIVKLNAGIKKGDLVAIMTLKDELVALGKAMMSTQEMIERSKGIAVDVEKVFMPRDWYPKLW

[2] = biological target: T1, aCBF5 protein (archaeal CBF5 …); test: native gel or EMSA
aCBF5 = biological target: T2, aCBF5 (Pyrococcus abyssi GE5, UniProt Q9V1A5 1-334); test: EMSA
T2 sequence: T1 sequence (looked up)

aCBF5;aNOP10 = biological target: T3, aCBF5;aNOP10 (Pyrococcus abyssi GE5;Pyrococcus abyssi …, UniProt Q9V1A5;Q9V0E3 1-334;1-60, |); test: EMSA
T3 sequence 1: T1 sequence (looked up)
T3 sequence 2: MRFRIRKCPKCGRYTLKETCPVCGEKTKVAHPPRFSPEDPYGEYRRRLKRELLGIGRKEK

- binding result [1]: binds
B1: GST-aNOP10 fusion protein (natural protein, Pyrococcus abyssi, UniProt Q9V0E3 1-60, looked up)
chain: T3 sequence 2

- binding result [2]: binds
B2: aNOP10 protein, Pyrococcus abyssi, cleaved from GST (natural protein, UniProt Q9V0E3 1-60, looked up)
chain: T3 sequence 2

B3: Pab91mtGA (structured_RNA)
RNA: GGGUAAUGCCCCUCCCCUCUCACACCUCCGGGAUCAGUCCCCGGAGGGCGGUCGGGGAGGGGACACCU
- binding result (aCBF5): binds
- binding result (aCBF5;aNOP10): binds
